Biological target: T1, C−反応性タンパク(CRP), ヒトCRP抗原 (human) (UniProt P02741)
T1 sequence (looked up): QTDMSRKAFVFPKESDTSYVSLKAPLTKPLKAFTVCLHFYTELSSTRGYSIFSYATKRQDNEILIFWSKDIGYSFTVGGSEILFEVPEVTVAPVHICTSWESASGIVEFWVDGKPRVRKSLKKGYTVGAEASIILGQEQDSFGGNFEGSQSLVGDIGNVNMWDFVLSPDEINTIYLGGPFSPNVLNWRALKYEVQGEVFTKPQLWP
Assay: sandwich immunochromatography, His20 as capture and as gold-colloid label, read by eye after 15 min

B1: 抗CRPscFv抗体No.20 (His-tagged scFv, His20) (scFv, not shown: small tags and cut ends)
scFv: MAQVKLPESGAELVKPGASVKLSCTPSGFNIKDTYIHWVRQRPGQGLEWIGRIDPANGHTRYAPKFQGKATLTADASSNTAYLHLSSLTSEDTAVYYCPRIVWYSGGYAMDYWGQGTTVTVSSGGGGSGGGGSGGGGSDIELTQSPSSMYASLGERVTITCKASQDINSYLSWFQQKPGKSPKTLIYRANRLVDGVPSRFSGSGSGQDYSLTISSLKYEDMGIYYCLQYDEFPLTFGGGTKLEIKRAA
lowest detectable CRP concentration: 1 ng/mL

Reference: patent publication JP2008058208A
